Reference: patent US20120219564 (published 2012)

B1: 2SD4 scFv (antibody, V domains shown)
VH: QVQLVESGGGLVQPGRSLRLSCAASGFTFDDYAMHWVRQAPGKGLDWVSAITWNSGHIDYADSVEGRFAVSRDNAKNALYLQMNSLRPEDTAVYYCTKASYLSTSSSLDNWGQGTLVTVSS
VL: DIQMTQSPSSLSASIGDRVTITCRASQGIRNYLAWYQQKPGKAPKLLIYAASTLQSGVPSRFSGSGSGTDFTLTISSLQPEDVATYYCQKYNSAPYAFGQGTKVEIK
B2: 2SD4 IgG4 (antibody, V domains shown)
VH: B1 VH
VL: B1 VL

Experiments:
[1] = biological target: T1, human TNFα (human, UniProt P01375); test: SPR
[2] = biological target: T1, human TNFα; test: other, equilibrium analysis
[3] = biological target: T1, human TNFα; test: SPR; remark: listed apart in the source

T1 sequence (P01375 77-233): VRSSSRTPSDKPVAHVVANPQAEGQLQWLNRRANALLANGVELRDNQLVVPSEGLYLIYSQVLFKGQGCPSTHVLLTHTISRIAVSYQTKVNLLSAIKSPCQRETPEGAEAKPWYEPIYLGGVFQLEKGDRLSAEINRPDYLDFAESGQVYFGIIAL

Binder	koff [1]	Kd [2]	Kd [3]
B1	0.0137 s⁻¹		
B2		0.48 nM	20 nM
